Test results taken from IntAct's records for PubMed 21185211.

B1: Septin-4 (Homo sapiens), O43236-6 (parent)
chain: MIKRFLEDTTDDGELSKFVKDFSGNASCHPPEAKTWASRPQVPEPRPQAPDLYDDDLEFRPPSRPQSSDNQQYFCAPAPLSPSARPRSPWGKLDPYDSSEDDKEYVGFATLPNQVHRKSVKKGFDFTLMVAGESGLGKSTLVNSLFLTDLYRDRKLLGAEERIMQTVEITKHAVDIEEKGVRLRLTIVDTPGFGDAVNNTECWKPVAEYIDQQFEQYFRDESGLNRKNIQDNRVHCCLYFISPFGHGYGPSLRLLAPPGAVKGTGQEHQGQGCH
partner: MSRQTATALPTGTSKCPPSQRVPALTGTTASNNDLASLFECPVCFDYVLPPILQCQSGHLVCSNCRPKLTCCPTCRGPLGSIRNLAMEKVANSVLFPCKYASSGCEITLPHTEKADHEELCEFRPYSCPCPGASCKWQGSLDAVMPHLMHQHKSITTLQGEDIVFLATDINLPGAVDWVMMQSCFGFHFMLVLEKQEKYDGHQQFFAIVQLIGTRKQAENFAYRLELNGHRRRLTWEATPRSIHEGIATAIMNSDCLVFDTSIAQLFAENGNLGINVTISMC

Variants of: B1
Details: with siah1_human SIAH1, Q8IUQ4

Row | effect of a mutation on the interaction | Variant
1 | disrupting interaction | P40A;V42A;E44A;R46A
2 | disrupting interaction | V42A;E44A;R46A
